Test results reported in patent publication US20200345810A1, “USE OF ALPHA-1-MICROGLOBULIN FOR PROTECTION OF BONE MARROW CELLS” (GUARD THERAPEUTICS INTERNATIONAL AB, priority 2017, published 2020).

Columns and labels:
[1] = test system: Rps19 deficient erythroid precursors; test: Drug screen: proliferation of Kit+ bone marrow cells in erythroid culture (CellTiter Glo); type: cell-based, mice; settings: 5 days expansion; A1M at 5 and 10 μM; FIG. 4B
Experimental: (§1) FIG. 4: A1M treatment improves expansion of erythroid cells from a murine DBA model and patients. CD117 (Kit)+ bone marrow cells were treated with Doxycycline to induce Rps19 deficiency. Twenty four hours after Doxycycline administration, cells were treated with drugs interfering with iron or heme availability. The ATP measuring platform CellTiter Glo was used to monitor viable cells after 5 days of expansion. In A) a schematic picture of the drug screen is shown. B) Proliferation of bone marrow cells (as described in A) from Rps19 inducible mice treated with respective drug compounds interfering with iron or heme availability is presented. Shown is also a schematic picture of drug activity where A1M is shown to have intracellular effects by reducing unbound heme in erythroblast. The cells were cultured in erythroid promoting media for 5 days. Kruskal-Wallis non parametric test with Dunn's multiple comparisons test was used for statistical analysis, and genotypes were compared to respective control, separately. p-values: *≤005, **≤001, ***≤0001, ****≤00001. C) Concentration of free unbound intracellular heme in Kit+ bone marrow cells from the Rps19 deficient mouse expanded in erythroid culture with A1M or vehicle for 72 hours. Mann Whitney non parametric analysis was employed for statistical analysis within each genotype. D) Expansion of CD34+ erythroid precursors from peripheral blood of DBA patients with mutations in RPS19, RPL35a and RPS26, or healthy controls treated with A1M or vehicle in erythroid promoting media for 7 days. […]
(§2) The drugs administered 24 hours after Doxycycline administration were A1M (supplied by A1M Pharma AB, Sweden), N-methyl mesoporphyrin IX (AH Diagnostics, Denmark), Succinylacetone, hemin, Deferoxamine, Ferrostatin and N-acetyl-L-cystein and hemopexin (Sigma-Aldrich). Cell expansion 5 days after drug administration was measured using CellTiter Glo (Promega, US), which measures the number of viable and metabolically active cells in culture based on quantitation of the ATP present. Plates were read on Victor 3 Multilabel counter (PerkinElmer, US).

[2] = test system: Rps19 deficient erythroid cells; test: Free unbound intracellular heme in Kit+ bone marrow cells expanded in erythroid culture; type: cell-based, mouse; settings: erythroid culture with A1M or vehicle for 72 hours; FIG. 4C
Experimental: as §1, with “genotype.” for “genotype. D) Expansion of CD34+ erythroid precursors from peripheral blood of DBA patients with mutations in RPS19, RPL35a and RPS26, or healthy controls treated with A1M or vehicle in erythroid promoting media for 7 days.”

[3] = test system: peripheral blood cells; test: Peripheral blood reticulocyte count after 177Lu-DOTATATE exposure; type: in vivo, BALB/c mice; settings: A1M 20 mg/kg subcutaneous 30 minutes prior to 150 MBq 177Lu-DOTATATE i.v.; 4 days; FIG. 2B
Experimental: (§3) Female BALB/c mice (Taconic, Denmark) at the age of 12 weeks were used in this study. Two groups (n=5-10) received a subcutaneous administration of either A1M (20 mg/kg) or vehicle buffer (10 mM Na-phosphate pH 7.4+0.15 M NaCl+12 mM histidine) followed by an intravenous (i.v.) injection, 30 minutes later, of ^177Lu-DOTATATE (150 MBq). A control group (n=5-10) received a subcutaneous administration of vehicle, followed by, 30 minutes after, an i.v. injections of NaCl. Animals were sacrificed 4 days post-injections.
After 4 days (post ^177Lu-DOTATATE administration), blood, for peripheral blood cell and reticulocyte count, was sampled from vena saphena, on non-anesthetized animals, in EDTA pre-coated vials (Microvette CB 300 K2E, Sarstedt, Nümbrecht, Germany) and placed on a rocking mixer in room temperature followed by analysis as described below. Thereafter the animals were anaesthetized using isoflurane, sacrificed by cervical dislocation and femur (left and right) sampled and placed in PBS, pH 7.4 in a 24 well plate standing on wet ice.
Following collection of peripheral blood SYSMEX KX-21N hematology analyzer was used for determining Blood parameters. Reticulocyte count was determined using LSR Fortessa or Canto II flow cytometry using Retic-Count (BD Biosciences).

[4] = test system: bone marrow cells; test: Bone marrow flow cytometry after 177Lu-DOTATATE exposure (radiation-induced damage); type: in vivo, BALB/c mice; settings: 4 days
Experimental: as §3
After 4 days (post ^177Lu-DOTATATE administration), blood, for peripheral blood cell and reticulocyte count, was sampled from vena saphena, on non-anesthetized animals, in EDTA pre-coated vials (Microvette CB 300 K2E, Sarstedt, Nümbrecht, Germany) and placed on a rocking mixer in room temperature followed by analysis as described below. […]
Bone marrow cells were isolated by crushing femur in PBS containing 2% FCS (GIBCO, Waltham, Mass., USA) and passing them though a 70 um cell strainer to obtain single cell suspension. […] All experiments were performed on LSRFortessa (BD Biosciences) flow cytometry and analyzed with FlowJo software.
Bone marrow cellularity was counted from the single cell suspension using hematology analyzer SYSMEX KX-21 N.

[5] = test system: cells from healthy subjects; test: Expansion of CD34+ erythroid precursors from peripheral blood (manual cell count); type: cell-based, human; settings: 5 μM A1M every 2-3 days, 7-8 days; FIG. 4D
Experimental: as §1, with “genotype.” for “genotype. D) Expansion of CD34+ erythroid precursors from peripheral blood of DBA patients with mutations in RPS19, RPL35a and RPS26, or healthy controls treated with A1M or vehicle in erythroid promoting media for 7 days.”

[6] = test system: erythroid precursors from DBA patients; test: as above; type: cell-based, human; settings: 5 μM A1M every 2-3 days, 7-8 days; mutations in RPS19, RPS26, RPL35a; FIG. 4D
Experimental: as §1, with “genotype.” for “genotype. D) Expansion of CD34+ erythroid precursors from peripheral blood of DBA patients with mutations in RPS19, RPL35a and RPS26, or healthy controls treated with A1M or vehicle in erythroid promoting media for 7 days.”

[7] = test system: WT cells; test: Drug screen: proliferation of Kit+ bone marrow cells in erythroid culture (CellTiter Glo); type: cell-based, mice; settings: 5 days expansion; FIG. 4B
Experimental: as §1, §2

[8] = general background on A1M secreted into the blood stream; cited from earlier work
[9] = Solubility/stability and function of A1M mutation variants; type: physicochemical; settings: mutated A1M variants

B1: hemopexin: mainly extracellular heme scavenger (Sigma-Aldrich) (protein, UniProt P02790 24-462, looked up)
Hemopexin: TPLPPTSAHGNVAEGETKPDPDVTERCSDGWSFDATTLDDNGTMLFFKGEFVWKSHKWDRELISERWKNFPSPVDAAFRQGHNSVFLIKGDKVWVYPPEKKEKGYPKLLQDEFPGIPSPLDAAVECHRGECQAEGVLFFQGDREWFWDLATGTMKERSWPAVGNCSSALRWLGRYYCFQGNQFLRFDPVRGEVPPRYPRDVRDYFMPCPGRGHGHRNGTGHGNSTHHGPEYMRCSPHLVLSALTSDNHGATYAFSGTHYWRLDTSRDGWHSWPIAHQWPQGPSAVDAAFSWEEKLYLVQGTQVYVFLTKGGYTLVSGYPKRLEKEVGTPHGIILDSVDAAFICPGSSRLHIMAGRRLWWLDLKSGAQATWTELPWPHEKVDGALCMEKSLGPNSCSANGPGLYLIHGPNLYCYSDVEKLNAAKALPQPQNVTSLLGCTH
- proliferation of Rps19 deficient erythroid precursors [1]: no effect

B2: alpha-1-microglobulin (protein, listed as Homo sapiens)
chain: GPVPTPPDNIQVQENFDISRIYGKWYNLAIGSTCPWLKKIMDRMTVSTLVLGEGATEAEISMTSTHWRKGVCEETSGAYEKTDTDGKFLYHKSKWDITMESYVVHTNYDEYAIFLTKKFSRHHGPTITAKLYGRAPQLRETLLQDFRVVAQGVGIPEDSIFTMADRGECVPGEQEPEPILIPR
modifications: Wildtype human A1M, no mutations
notes: Recombinant human A1M, variant RMC-035 corresponding to A1M (R66H+N17,96D), supplied by A1M Pharma AB
- level of unbound intracellular heme [2]: significantly reduce the level of unbound intracellular heme back to WT levels
- percentage of viable reticulocytes in peripheral blood [3]: completely preserved reticulocyte population at the level of the non-radiation exposed control animals
- percentage of viable reticulocytes in bone marrow ([4]; A1M 20 mg/kg subcutaneous 30 minutes prior to 150 MBq 177Lu-DOTATATE i.v., FIG. 2A): completely preserved reticulocyte population at the level of the non-radiation exposed control animals
- protection of the proerythroblast population ([4]; A1M 20 mg/kg subcutaneous 30 minutes prior to 150 MBq 177Lu-DOTATATE, FIG. 3): displayed protection of the proerythroblast population
- expansion of cells from healthy subjects [5]: no such trend was observed
- expansion of erythroid precursors from three DBA patients [6]: improved expansion
- proliferation of Rps19 deficient erythroid precursors [1]: increased proliferation
- proliferation of WT cells [7]: No effect on proliferation
- T½ of transport across the vessel walls to the extravascular compartment [8]: 2 to 3 min

B3: (M41K+R66H): A1M with point mutations M41K and R66H (protein, UniProt P02760 20-203, looked up, variant M41K R66H)
Alpha-1-microglobulin: GPVPTPPDNIQVQENFNISRIYGKWYNLAIGSTCPWLKKIKDRMTVSTLVLGEGATEAEISMTSTHWRKGVCEETSGAYEKTDTDGKFLYHKSKWNITMESYVVHTNYDEYAIFLTKKFSRHHGPTITAKLYGRAPQLRETLLQDFRVVAQGVGIPEDSIFTMADRGECVPGEQEPEPILIPRV
modifications: Alpha-1-microglobulin
- solubility and/or stability and function [9]: increased solubility and/or stability with maintained function

B4: (R66H+N17,96D): A1M with point mutations R66H and N17,96D; RMC-035 corresponds to this variant (protein, UniProt P02760 20-203, looked up, variant R66H N17D N96D)
Alpha-1-microglobulin: GPVPTPPDNIQVQENFDISRIYGKWYNLAIGSTCPWLKKIMDRMTVSTLVLGEGATEAEISMTSTHWRKGVCEETSGAYEKTDTDGKFLYHKSKWDITMESYVVHTNYDEYAIFLTKKFSRHHGPTITAKLYGRAPQLRETLLQDFRVVAQGVGIPEDSIFTMADRGECVPGEQEPEPILIPRV
modifications: Alpha-1-microglobulin RMC-035
- solubility and/or stability and function [9]: increased solubility and/or stability with maintained function

B5: (M41K+N17,96D): A1M with point mutations M41K and N17,96D (protein, UniProt P02760 20-203, looked up, variant M41K N17D N96D)
Alpha-1-microglobulin: GPVPTPPDNIQVQENFDISRIYGKWYNLAIGSTCPWLKKIKDRMTVSTLVLGEGATEAEISMTSTRWRKGVCEETSGAYEKTDTDGKFLYHKSKWDITMESYVVHTNYDEYAIFLTKKFSRHHGPTITAKLYGRAPQLRETLLQDFRVVAQGVGIPEDSIFTMADRGECVPGEQEPEPILIPRV
modifications: Alpha-1-microglobulin
notes: A1M with point mutations M41K and N17,96D
- solubility and/or stability and function [9]: increased solubility and/or stability with maintained function

B6: (M41K+R66H+N17,96D): A1M with point mutations M41K, R66H and N17,96D (protein, UniProt P02760 20-203, looked up, variant M41K R66H N17D N96D)
Alpha-1-microglobulin: GPVPTPPDNIQVQENFDISRIYGKWYNLAIGSTCPWLKKIKDRMTVSTLVLGEGATEAEISMTSTHWRKGVCEETSGAYEKTDTDGKFLYHKSKWDITMESYVVHTNYDEYAIFLTKKFSRHHGPTITAKLYGRAPQLRETLLQDFRVVAQGVGIPEDSIFTMADRGECVPGEQEPEPILIPRV
modifications: Alpha-1-microglobulin
notes: A1M with point mutations M41K, R66H and N17,96D
- solubility and/or stability and function [9]: increased solubility and/or stability with maintained function
